B1: ACBD3 (parent)
chain: YVASHKIEKEEQEKKRKEEEERRR
B2: INTS4 (parent)
chain: TIIEPAGESDNPLRFTSGLVVALD

Variants of: B1
Experiment: protein stability index of a GFP-peptide fusion (GPS, HEK-293T) (PSI 1-6); higher = more stable
Details: c terminus: a fixed tail appended
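Note: lentivirally expressed fusions sorted by FACS into six bins by GFP to DsRed ratio, PSI derived from sequencing read proportions per bin multiplied by bin number.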

| Variant | protein stability index |
| --- | --- |
| Q12L | 2.78 |
| Q12W | 1.93 |
| Q12V | 2.02 |
| Q12P | 2.31 |
| Q12A | 3.33 |
| Q12N | 2.18 |
| E19C | 2.53 |
| E19T | 2.57 |
| E19Y | 2.38 |
| E19G | 2.03 |
| Y1T | 5.43 |
| Y1D | 5.55 |
| Y1N | 5.77 |
| V2W | 4.93 |
| V2L | 5.22 |
| V2G | 5.36 |
| I7V | 2.43 |
| I7L | 2.37 |
| E11D | 2.75 |
| E11K | 1.71 |
| E11H | 3.12 |
| E11S | 2.57 |
| K15G | 2.71 |
| K15R | 2.69 |
| K14I | 3.21 |
| K14C | 2.67 |
| K14W | 2.69 |

| Variant | protein stability index |
| --- | --- |
| K17R | 3.32 |
| K17A | 2.88 |
| K17F | 2.32 |
| K6I | 2.66 |
| K6T | 2.88 |
| K6M | 3.21 |
| R24C | 2.83 |
| R24P | 2.04 |
| R24G | 2.54 |
| R24E | 2.19 |
| E20H | 2.39 |
| E20K | 2.83 |
| E20M | 2.48 |
| E20R | 1.91 |
| E21N | 2.07 |
| E21A | 1.54 |
| E21S | 2.52 |
| E21C | 2.21 |
| R23C | 2.44 |
| R23G | 3.03 |
| R23E | 3.35 |
| R23W | 2.02 |
| R23L | 2.7 |
| E8Y | 2.32 |
| E8H | 1.96 |
| E8M | 1.75 |
| E8R | 2.81 |

| Variant | protein stability index |
| --- | --- |
| E8K | 2.57 |
| E8N | 2.36 |
| E8V | 2.1 |
| R22P | 2.72 |
| R22F | 2.5 |
| R22E | 3.02 |
| R22W | 2.28 |
| R22M | 2.76 |
| R22L | 1.89 |
| S4K | 3.67 |
| E13Y | 2.41 |
| H5F | 2.24 |
| H5S | 3.07 |
| R16A | 3.02 |
| R16K | 2.92 |
| R16G | 2.88 |
| E10L | 2.95 |
| E10P | 1.78 |
| E10S | 3.11 |
| E10A | 1.55 |
| A3E | 2.84 |
| A3V | 3.36 |
| K9R | 1.84 |
| K9M | 2.8 |
| K9G | 2.5 |
| K9Q | 3.22 |

Variants of: B2
Experiment: as above
Details: c terminus: a fixed tail appended

| Variant | protein stability index |
| --- | --- |
| F15S | 4.21 |
| F15C | 3.87 |
| F15V | 3.97 |
| F15L | 3.21 |
| F15W | 2.2 |
| F15Q | 3.99 |
| F15N | 4.36 |
| F15Y | 2.87 |
| F15K | 3.54 |
| F15I | 3.72 |
| F15T | 4.3 |
| F15R | 3.92 |
| F15E | 4.63 |
| F15M | 3.44 |
| F15D | 5.04 |
| F15A | 4.29 |
| F15P | 3.9 |
| F15H | 4.37 |
| F15G | 4.03 |
| R14E | 4.21 |
| R14C | 2.62 |
| R14Q | 3.26 |
| R14L | 2.96 |
| R14F | 2.04 |
| R14N | 3.95 |
| R14I | 2.46 |

| Variant | protein stability index |
| --- | --- |
| R14A | 3.63 |
| R14W | 2.03 |
| R14M | 2.27 |
| R14P | 3.4 |
| R14H | 3.91 |
| R14K | 2.77 |
| R14V | 2.86 |
| R14S | 3.63 |
| R14Y | 2.21 |
| R14T | 2.96 |
| R14G | 3.25 |
| R14D | 3.93 |
| N11Q | 3 |
| N11R | 3.19 |
| N11T | 2.64 |
| N11W | 1.63 |
| N11S | 2.6 |
| N11V | 2.33 |
| N11Y | 2.25 |
| L13S | 3.86 |
| L13I | 2.87 |
| L13A | 3.81 |
| L13P | 3.6 |
| L13Y | 3.17 |
| L13G | 3.14 |
| L13T | 4.03 |

| Variant | protein stability index |
| --- | --- |
| L13K | 3.64 |
| L13C | 2.94 |
| L13R | 3.65 |
| L13N | 3.06 |
| L13D | 4.41 |
| L13E | 4.12 |
| L13H | 3.38 |
| L13V | 3.01 |
| L13W | 3.14 |
| L13M | 3.35 |
| L13F | 2.33 |
| L13Q | 3.5 |
| P12D | 3.4 |
| P12M | 2.33 |
| P12W | 2.14 |
| P12C | 2.52 |
| P12G | 2.68 |
| P12H | 2.61 |
| P12K | 2.61 |
| P12R | 2.65 |
| P12L | 2.1 |
| P12T | 2.93 |
| P12Q | 3.73 |
| P12S | 3.13 |
| P12N | 2.88 |
| P12E | 3.13 |

| Variant | protein stability index |
| --- | --- |
| P12I | 2.27 |
| P12F | 2.41 |
| P12Y | 1.96 |
| P12A | 2.76 |
| P12V | 2.53 |
| D24W | 2.4 |
| D24V | 2.33 |
| D24Q | 2.29 |
| D24F | 4.12 |
| D24H | 1.93 |
| D24P | 2.31 |
| D24L | 1.73 |
| D24C | 1.35 |
| D24M | 1.98 |
| D24N | 2.12 |
| D24K | 2.19 |
| D24T | 2.2 |
| D24A | 2.75 |
| D24R | 1.9 |
| D24Y | 2.31 |
| D24G | 2.51 |
| D24S | 2.06 |
| D24E | 2.38 |
| D24I | 1.33 |
| V20S | 3.77 |
| V20N | 3.46 |

| Variant | protein stability index |
| --- | --- |
| V20A | 2.95 |
| V20G | 3.76 |
| V20C | 3.38 |
| V20K | 3.75 |
| V20L | 2.53 |
| V20T | 3.82 |
| V20W | 2.68 |
| V20H | 3.28 |
| V20Q | 3.91 |
| V20Y | 2.44 |
| V20D | 4.38 |
| V20P | 4.23 |
| V20M | 2.59 |
| V20R | 3.38 |
| V20F | 2.31 |
| V20I | 2.73 |
| V20E | 4.03 |
| L19I | 2.71 |
| L19P | 3.72 |
| L19G | 4.16 |
| L19E | 4.34 |
| L19K | 4.27 |
| L19Q | 4.05 |
| L19F | 2.38 |
| L19R | 4.01 |
| L19M | 2.83 |

| Variant | protein stability index |
| --- | --- |
| L19C | 3.95 |
| L19D | 4.96 |
| L19N | 4.11 |
| L19T | 4.16 |
| L19S | 4.77 |
| L19A | 4.01 |
| L19W | 1.98 |
| L19H | 3.59 |
| L19Y | 2.62 |
| L19V | 3.33 |
| G18V | 2.15 |
| G18P | 2.59 |
| G18A | 2.42 |
| G18R | 2.24 |
| G18C | 1.66 |
| G18L | 1.55 |
| G18W | 2.09 |
| G18N | 2.99 |
| G18F | 1.41 |
| G18M | 1.67 |
| G18E | 3.15 |
| G18T | 2.51 |
| G18I | 2.4 |
| G18Y | 1.89 |
| G18S | 2.83 |
| G18K | 2.77 |

| Variant | protein stability index |
| --- | --- |
| G18H | 2.21 |
| G18Q | 2.7 |
| G18D | 3.67 |
| L23K | 4.07 |
| L23Y | 3.29 |
| L23S | 4.35 |
| L23P | 4.17 |
| L23W | 2.97 |
| L23R | 3.6 |
| L23N | 4.1 |
| L23A | 4.1 |
| L23T | 3.92 |
| L23Q | 4.56 |
| L23E | 4.4 |
| L23I | 2.4 |
| L23C | 3.62 |
| L23F | 2.75 |
| L23V | 3.1 |
| L23M | 3.26 |
| L23D | 4.53 |
| L23H | 3.81 |
| L23G | 4.16 |
| T16I | 2.21 |
| T16W | 1.76 |
| T16D | 3.92 |
| T16M | 2 |

| Variant | protein stability index |
| --- | --- |
| T16A | 2.74 |
| T16E | 3.44 |
| T16V | 2.01 |
| T16L | 1.99 |
| T16C | 1.91 |
| T16K | 3.02 |
| T16Q | 3.35 |
| T16S | 2.88 |
| T16R | 3.35 |
| T16H | 2.23 |
| T16G | 3.15 |
| T16Y | 1.74 |
| T16F | 2.35 |
| T16P | 3 |
| T16N | 3.39 |
| V21G | 3.65 |
| V21T | 3.67 |
| V21K | 3.45 |
| V21D | 4.92 |
| V21N | 3.63 |
| V21C | 3.48 |
| V21M | 2.84 |
| V21A | 3.36 |
| V21S | 3.51 |
| V21L | 2.89 |
| V21H | 3.27 |

| Variant | protein stability index |
| --- | --- |
| V21F | 2.37 |
| V21E | 4.5 |
| V21Y | 3 |
| V21R | 3.67 |
| V21W | 2.16 |
| V21I | 2.78 |
| V21Q | 3.71 |
| V21P | 3.93 |
| S17G | 2.9 |
| S17K | 2.65 |
| S17I | 2.27 |
| S17Q | 3.06 |
| S17C | 1.52 |
| S17F | 2.08 |
| S17V | 1.73 |
| S17D | 3.92 |
| S17H | 2.5 |
| S17P | 2.99 |
| S17N | 2.53 |
| S17L | 3.12 |
| S17T | 2.92 |
| S17A | 2.51 |
| S17E | 3.73 |
| S17M | 1.67 |
| S17W | 2.14 |
| S17Y | 2.15 |

| Variant | protein stability index |
| --- | --- |
| S17R | 2.05 |
| A22F | 2.03 |
| A22H | 2.78 |
| A22W | 1.87 |
| A22V | 1.95 |
| A22M | 2.26 |
| A22I | 1.61 |
| A22Q | 2.65 |
| A22K | 3.21 |
| A22P | 3.58 |
| A22Y | 2.45 |
| A22E | 4.07 |
| A22C | 2.6 |
| A22N | 3.18 |
| A22T | 2.78 |
| A22S | 3.2 |
| A22D | 3.8 |
| A22R | 2.93 |
| A22G | 2.85 |
| A22L | 1.73 |

Reference: the supplement of paper PMC10567573
